Common to all, as to experiment: spectrophotometric electron acceptor reduction
Holding throughout (conditions): apparent, 25 mM D-glucose, pH 4, 30 °C

Substrate in data set [1]: O=C1C(Cl)=CC(=Nc2ccc(O)cc2)C=C1Cl
In kind it is biochemical, Agaricus xanthodermus. From the text:
(§1) spectrophotometric electron acceptor reduction on AxPDH

Substrate in data set [2]: O=C1C=CC(=O)C=C1
The class given is biochemical, Agaricus xanthodermus.
Excerpt: as §1

Substrate in data set [3]: O=C1C(Cl)=CC(=Nc2ccc(O)cc2)C=C1Cl
In kind it is biochemical, Agaricus campestris. The text has this:
(§2) spectrophotometric electron acceptor reduction on AcPDH

Substrate in data set [4]: O=C1C=CC(=O)C=C1
In kind it is biochemical, Agaricus campestris.
Excerpt: as §2

B1: AxPDH (Agaricus xanthodermus) (protein)
chain: AITYQHPDDLPSNVNYDFIVAGGGTAGLVVASRLSENSDWNILVIEAGPSNKDTPETRVPGLADSLPGSRTDWNYTTIPQDALGGRSLNYSRAKVLGGCSTHNGMVYTRGSEDDWNYWAEVTGDQALSWDSVLPIMKKAEKFSQDFSDQSVDGHIDPAVHGRDGLLSVVASYTNVSFNDLLLQTTKELSDEFPFKLDLNDGKPHELAWTQYTIDHNAERSSSATSYLETTGDNVHVLVNTHVTRIVSAGNGTNFRSVEFAVDSNSPKKVLQAKKELILSAGVIASPQVLMNSGIGGREELQAIGVDTLIDNPSVGKNLSDQAATLLMFDTTLPNTDYDVAAALTEWDKSRSGPMAHGARLNHLTWVRLPDDKLNGSDPSSGKDSPHIEFQFRQISHQLPPADVPNQVQLPDPDSIGVVLQFSVVNLYSISPGSVILNDNDPFANPMIDLNMFGDQKDIAILREGVRSARRMFSSPAFKDVINGTVYPPADVTSDEDLDAFLRTSAESYWHGVGTLSMSPQNASWGVVNPDFRVKGTSGLRVVDASVIPRAPAGHTQVPVYTFAEHASVLIAASYH
Consider B1, for which, in data set [1], the Km (as a rule, the concentration of substrate that gives half-maximal velocity) was 90 ± 10 µM; the kcat (usually the maximal rate divided by the concentration of active sites) amounted to 7.65 ± 0.66 s⁻¹; the kcat/Km (in general, the turnover number divided by the Michaelis constant) was found to be 85000 M⁻¹ s⁻¹. Moreover, in data set [2], the Km is 3250 ± 510 µM, the kcat turned out to be 12.9 ± 1.56 s⁻¹ and the kcat/Km was determined as 4000 M⁻¹ s⁻¹.

B2: AcPDH (Agaricus campestris) (protein)
chain: AITYQHPDDLPGDVDYDFIVAGGGTAGLVVASRLGENSKWNVLVIEAGPSNKDVFATRVPGLAETLPTSHIDWNYTTVPQQALGGRSLNYSRAMILGGCSTHNGMVYTRGSKDDWNKWADVTGNRDLSWDSILPIMKKVEKFSEDFSDQSVEGHIDPSVHGNDGKLSVVASYTNVSFNDLLLETTKELVDEFPFKLDMNDGNPVGLTWNQYTIDHNAERSSSATAYLESTGDNVHVLLNTRVTRIVPTGKTNFRTVEFAVDAGGPRKQLTAKKEVILSGGFIASPQILMNSGIGDQEALKAVGVDTLVNNPSVGKNVSDQAATLVLFDTTLPNTDFDVDAAIVEWNNSHAGPLATGAPLNHLIWVRLSDDKLSGSDPSSGKDSPHIEFQFSKISHRIPPANVPNQVALPSQDSIGVVIQFSVVNLNSISRGSVSLNDNNPFSHPLIDLNMLGEEQDIAILREGVHSARRMLSSEAFKPFVNGSVHPPANITSDEDLDAFLHTTTKSYLHGVGTLSMSPQNASWGVVDPDFRVKGTTGLRVVDASVIPSVPAGHTQTPVYAFAEYASIVIAKSYN
Regarding B2, in data set [3], the Km was determined as 110 ± 0 µM, the turnover number (kcat) came out at 10.6 ± 0.57 s⁻¹ and the kcat/Km was 96000 M⁻¹ s⁻¹. For the same protein, in data set [4], the Km is 120 ± 10 µM, the kcat is 34.8 ± 1.02 s⁻¹ and the kcat/Km stood at 303000 M⁻¹ s⁻¹.
